Biological target: DNMT1 (human, UniProt P26358 1-1616)
Experiment: EMSA; SAM 20-fold excess + GSK3852279B 5-fold excess; no substantial change in binding; EMSA: 25 mM Tris-HCl pH 7.5, 40 mM NaCl, 20% glycerol, 1 mM DTT, 0.5 mM MgCl2, overnight at room temperature; covalent assay: 25 mM Tris-HCl pH 7.5, 20 mM KCl
Settings: protein: recombinant; tags: N-terminal Flag-6xHis-TEV site; blunt

DNMT1, sequence (P26358 whole entry): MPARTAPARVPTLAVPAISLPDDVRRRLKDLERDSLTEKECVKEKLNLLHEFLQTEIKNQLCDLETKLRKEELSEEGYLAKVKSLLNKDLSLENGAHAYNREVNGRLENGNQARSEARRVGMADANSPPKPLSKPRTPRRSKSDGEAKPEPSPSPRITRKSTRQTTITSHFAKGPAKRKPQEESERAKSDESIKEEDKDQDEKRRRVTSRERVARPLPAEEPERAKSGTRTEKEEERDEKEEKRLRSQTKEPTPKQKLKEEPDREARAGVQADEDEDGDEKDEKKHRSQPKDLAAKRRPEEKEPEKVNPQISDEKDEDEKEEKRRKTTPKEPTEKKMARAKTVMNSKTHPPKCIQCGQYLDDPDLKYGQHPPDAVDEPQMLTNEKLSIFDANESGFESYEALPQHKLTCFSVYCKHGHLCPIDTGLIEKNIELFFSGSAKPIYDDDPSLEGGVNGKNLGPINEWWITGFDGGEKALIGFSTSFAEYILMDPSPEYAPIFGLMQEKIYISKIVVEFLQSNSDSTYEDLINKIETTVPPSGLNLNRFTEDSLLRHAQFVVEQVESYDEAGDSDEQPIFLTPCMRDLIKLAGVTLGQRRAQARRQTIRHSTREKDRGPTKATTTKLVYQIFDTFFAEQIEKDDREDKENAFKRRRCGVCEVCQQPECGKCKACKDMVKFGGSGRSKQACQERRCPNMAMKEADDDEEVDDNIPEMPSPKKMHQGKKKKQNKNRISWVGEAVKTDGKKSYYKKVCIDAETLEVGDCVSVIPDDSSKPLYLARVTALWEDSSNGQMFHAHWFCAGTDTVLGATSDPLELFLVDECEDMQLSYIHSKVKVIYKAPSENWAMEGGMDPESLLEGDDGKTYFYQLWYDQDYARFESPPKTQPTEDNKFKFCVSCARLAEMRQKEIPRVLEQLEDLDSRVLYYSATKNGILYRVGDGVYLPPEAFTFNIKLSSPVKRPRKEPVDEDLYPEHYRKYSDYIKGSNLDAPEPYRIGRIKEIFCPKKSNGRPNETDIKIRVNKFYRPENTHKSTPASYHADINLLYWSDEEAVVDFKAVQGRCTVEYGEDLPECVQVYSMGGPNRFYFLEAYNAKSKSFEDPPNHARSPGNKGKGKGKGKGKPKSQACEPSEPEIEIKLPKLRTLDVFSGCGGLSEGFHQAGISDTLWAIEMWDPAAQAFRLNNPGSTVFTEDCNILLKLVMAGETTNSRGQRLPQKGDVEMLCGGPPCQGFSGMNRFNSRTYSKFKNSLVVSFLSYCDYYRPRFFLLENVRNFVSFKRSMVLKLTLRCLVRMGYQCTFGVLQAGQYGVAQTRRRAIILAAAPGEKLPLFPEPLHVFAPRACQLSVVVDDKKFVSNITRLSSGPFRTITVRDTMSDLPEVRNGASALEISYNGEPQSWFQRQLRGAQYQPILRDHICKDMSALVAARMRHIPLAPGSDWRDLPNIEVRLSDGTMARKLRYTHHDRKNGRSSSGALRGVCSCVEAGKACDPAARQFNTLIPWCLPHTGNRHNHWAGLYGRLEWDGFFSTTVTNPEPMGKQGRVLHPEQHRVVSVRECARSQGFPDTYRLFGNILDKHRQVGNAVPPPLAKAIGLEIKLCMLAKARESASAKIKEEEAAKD

B1: 26 bp hemi-methylated DNA (dsDNA)
DNA 1: TGGAGTCGAGGCCGCCTGCGCAGGAC
DNA 2: GTCCTGCGCAGGCGGCCTCGACTCCA
modifications: 5-methyl-dC at position 13 of strand 1
binding result: binds

Reference: publication PMC11371216, “Structural insight into the DNMT1 reaction cycle by cryo-electron microscopy”
